T1: FcγRIIb extracellular domain with C-terminal His tag (human, UniProt P31994 43-217)
T1 construct: extracellular domain; Soluble receptor expressed in FreeStyle293 cells and used as analyte in Biacore; also called FcgRIIb; 2b; not shown: His tag attached to the C terminus
T1 sequence (looked up): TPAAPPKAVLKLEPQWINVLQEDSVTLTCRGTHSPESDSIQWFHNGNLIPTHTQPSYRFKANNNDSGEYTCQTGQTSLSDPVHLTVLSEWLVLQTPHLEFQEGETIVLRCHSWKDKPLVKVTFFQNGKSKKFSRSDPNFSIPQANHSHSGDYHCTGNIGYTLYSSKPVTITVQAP


Legend:
[1] = molecular target: T2, FcγRIIIa extracellular domain with C-terminal His tag (human, UniProt P08637 17-208); assay: SPR (Biacore); He/Con_3a divided by He/Con_2b (FcγRIIIa over FcγRIIb)
T2 construct: extracellular domain; also called FcgRIIIa; 3a; not shown: His tag attached to the C terminus
Protocol: (§1) The heterodimerized antibodies He Abs in which one of the H chains was introduced with an alteration were assayed for their binding activities to each activating FcγR and inhibitory FcγR according to the method described in Example 4. […] The activating FcγRs in FIGS. 26, 27, 28, and 29 are FcγRIa, FcγRIIa (R), FcγRIIa (H), and FcγRIIIa, respectively.
(§2) Analysis of interaction between objective antibody and the FcγR was carried out using Biacore T100 (GE Healthcare). HBS-EP+ (GE Healthcare) was used as the running buffer, and the measurement temperature was set to 25° C. Chips produced by immobilizing the antigen peptide by the amine coupling method to a Series S Sencor Chip CM5 (GE Healthcare), or alternatively, chips produced by allowing preliminarily biotinylated antigen peptides to interact with and immobilize onto a Series S Sensor Chip SA (certified) (GE Healthcare) were used. Antibodies of interest were captured onto an antigen peptide-immobilized chip, and allowed to interact to each FcγR diluted with running buffer. To regenerate and repeatedly use the chip, the antibodies captured on the chip were washed off by reacting 10 mM glycine-HCl, pH 1.5.

[2] = molecular target: T2, FcγRIIIa extracellular domain with …; assay: SPR (Biacore), antibody captured, FcγR as analyte; binding activity relative to control heterodimerized antibody
Protocol: as §1, §2

[3] = molecular target: T1, FcγRIIb extracellular domain with …; assay: as above
Protocol: as §1, §2

T2 sequence (P08637 17-208): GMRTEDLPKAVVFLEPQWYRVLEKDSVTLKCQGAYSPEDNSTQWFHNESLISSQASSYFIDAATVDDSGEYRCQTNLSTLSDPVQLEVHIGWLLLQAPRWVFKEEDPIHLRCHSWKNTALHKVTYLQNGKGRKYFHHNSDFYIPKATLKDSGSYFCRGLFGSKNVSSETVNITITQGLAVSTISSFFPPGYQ

Binder	He_3a/2b [1]	He/Con_3a [2]	He/Con_2b [3]
GpH7-A5/GpH7-B3 variant D270_01G/GpL16-k0 (antibody, human IgG1, kappa, Heterodimerized anti-glypican-3 IgG1 with the alteration in only one H chain; also called He Ab) heavy 1: not shown heavy 2: not shown light: DIVMTQSPLSLPVTPGEPASISCQASESLVHSNRNTYLHWYLQKPGQSPQLLIYKVSNRFSGVPDRFSGSGSGTDFTLKISRVEAEDVGVYYCSQNTHVPPTFGQGTKVEIERTVAAPSVFIFPPSDEQLKSGTASVVCLLNNFYPREAKVQWKVDNALQSGNSQESVTEQDSKDSTYSLSSTLTLSKADYEKHKVYACEVTHQGLSSPVTKSFNRGEC	1.26 ratio	38.5 % of GpH7-A5/GpH7-B3/GpL16-k0 (=100)	30.5 % of GpH7-A5/GpH7-B3/GpL16-k0 (=100)
GpH7-A5/GpH7-B3 variant D270_10E/GpL16-k0 (antibody, human IgG1, kappa, Heterodimerized anti-glypican-3 IgG1 with the alteration in only one H chain; also called He Ab) heavy 1: not shown heavy 2: not shown light: DIVMTQSPLSLPVTPGEPASISCQASESLVHSNRNTYLHWYLQKPGQSPQLLIYKVSNRFSGVPDRFSGSGSGTDFTLKISRVEAEDVGVYYCSQNTHVPPTFGQGTKVEIERTVAAPSVFIFPPSDEQLKSGTASVVCLLNNFYPREAKVQWKVDNALQSGNSQESVTEQDSKDSTYSLSSTLTLSKADYEKHKVYACEVTHQGLSSPVTKSFNRGEC	1.61 ratio	123 % of GpH7-A5/GpH7-B3/GpL16-k0 (=100)	76.5 % of GpH7-A5/GpH7-B3/GpL16-k0 (=100)
GpH7-A5/GpH7-B3 variant D270_07I/GpL16-k0 (antibody, human IgG1, kappa, Heterodimerized anti-glypican-3 IgG1 with the alteration in only one H chain; also called He Ab) heavy 1: not shown heavy 2: not shown light: DIVMTQSPLSLPVTPGEPASISCQASESLVHSNRNTYLHWYLQKPGQSPQLLIYKVSNRFSGVPDRFSGSGSGTDFTLKISRVEAEDVGVYYCSQNTHVPPTFGQGTKVEIERTVAAPSVFIFPPSDEQLKSGTASVVCLLNNFYPREAKVQWKVDNALQSGNSQESVTEQDSKDSTYSLSSTLTLSKADYEKHKVYACEVTHQGLSSPVTKSFNRGEC	1.68 ratio	69.6 % of GpH7-A5/GpH7-B3/GpL16-k0 (=100)	41.5 % of GpH7-A5/GpH7-B3/GpL16-k0 (=100)
GpH7-A5/GpH7-B3 variant D270_11K/GpL16-k0 (antibody, human IgG1, kappa, Heterodimerized anti-glypican-3 IgG1 with the alteration in only one H chain; also called He Ab) heavy 1: not shown heavy 2: not shown light: DIVMTQSPLSLPVTPGEPASISCQASESLVHSNRNTYLHWYLQKPGQSPQLLIYKVSNRFSGVPDRFSGSGSGTDFTLKISRVEAEDVGVYYCSQNTHVPPTFGQGTKVEIERTVAAPSVFIFPPSDEQLKSGTASVVCLLNNFYPREAKVQWKVDNALQSGNSQESVTEQDSKDSTYSLSSTLTLSKADYEKHKVYACEVTHQGLSSPVTKSFNRGEC	2.02 ratio	41 % of GpH7-A5/GpH7-B3/GpL16-k0 (=100)	20.3 % of GpH7-A5/GpH7-B3/GpL16-k0 (=100)

Results, then the binder that gave them:

He_3a/2b [1]	He/Con_3a [2]	He/Con_2b [3]	Binder
1.25 ratio	56.6 % of GpH7-A5/GpH7-B3/GpL16-k0 (=100)	45.1 % of GpH7-A5/GpH7-B3/GpL16-k0 (=100)	GpH7-A5/GpH7-B3 variant E269_03V/GpL16-k0 (antibody, human IgG1, kappa, Heterodimerized anti-glypican-3 IgG1 with the alteration in only one H chain; also called He Ab) heavy 1: not shown heavy 2: not shown light: DIVMTQSPLSLPVTPGEPASISCQASESLVHSNRNTYLHWYLQKPGQSPQLLIYKVSNRFSGVPDRFSGSGSGTDFTLKISRVEAEDVGVYYCSQNTHVPPTFGQGTKVEIERTVAAPSVFIFPPSDEQLKSGTASVVCLLNNFYPREAKVQWKVDNALQSGNSQESVTEQDSKDSTYSLSSTLTLSKADYEKHKVYACEVTHQGLSSPVTKSFNRGEC
1.7 ratio	81.9 % of GpH7-A5/GpH7-B3/GpL16-k0 (=100)	48 % of GpH7-A5/GpH7-B3/GpL16-k0 (=100)	GpH7-A5/GpH7-B3 variant D270_19Q/GpL16-k0 (antibody, human IgG1, kappa, Heterodimerized anti-glypican-3 IgG1 with the alteration in only one H chain; also called He Ab) heavy 1: not shown heavy 2: not shown light: DIVMTQSPLSLPVTPGEPASISCQASESLVHSNRNTYLHWYLQKPGQSPQLLIYKVSNRFSGVPDRFSGSGSGTDFTLKISRVEAEDVGVYYCSQNTHVPPTFGQGTKVEIERTVAAPSVFIFPPSDEQLKSGTASVVCLLNNFYPREAKVQWKVDNALQSGNSQESVTEQDSKDSTYSLSSTLTLSKADYEKHKVYACEVTHQGLSSPVTKSFNRGEC
1.21 ratio	52.1 % of GpH7-A5/GpH7-B3/GpL16-k0 (=100)	42.9 % of GpH7-A5/GpH7-B3/GpL16-k0 (=100)	GpH7-A5/GpH7-B3 variant E269_08L/GpL16-k0 (antibody, human IgG1, kappa, Heterodimerized anti-glypican-3 IgG1 with the alteration in only one H chain; also called He Ab) heavy 1: not shown heavy 2: not shown light: DIVMTQSPLSLPVTPGEPASISCQASESLVHSNRNTYLHWYLQKPGQSPQLLIYKVSNRFSGVPDRFSGSGSGTDFTLKISRVEAEDVGVYYCSQNTHVPPTFGQGTKVEIERTVAAPSVFIFPPSDEQLKSGTASVVCLLNNFYPREAKVQWKVDNALQSGNSQESVTEQDSKDSTYSLSSTLTLSKADYEKHKVYACEVTHQGLSSPVTKSFNRGEC
1.28 ratio	56.7 % of GpH7-A5/GpH7-B3/GpL16-k0 (=100)	44.2 % of GpH7-A5/GpH7-B3/GpL16-k0 (=100)	GpH7-A5/GpH7-B3 variant D270_13S/GpL16-k0 (antibody, human IgG1, kappa, Heterodimerized anti-glypican-3 IgG1 with the alteration in only one H chain; also called He Ab) heavy 1: not shown heavy 2: not shown light: DIVMTQSPLSLPVTPGEPASISCQASESLVHSNRNTYLHWYLQKPGQSPQLLIYKVSNRFSGVPDRFSGSGSGTDFTLKISRVEAEDVGVYYCSQNTHVPPTFGQGTKVEIERTVAAPSVFIFPPSDEQLKSGTASVVCLLNNFYPREAKVQWKVDNALQSGNSQESVTEQDSKDSTYSLSSTLTLSKADYEKHKVYACEVTHQGLSSPVTKSFNRGEC

— patent US20150344570A1 (published 2015)
